These are literature values, as cited in US7235522B2, “Use of microparticles having a protein and an antibody adsorbed thereon for preparing a pharmaceutical composition for intranasal administration” (priority 1997, dated 2007).

For this series the following is noted: in vivo.

insulin [insulin (51 AA)]: the “absorption of proteins administered by nasal route” value is “almost zero”.
